Substrate in the data set: N=C(N)NCCCCN
Nature of the data set: purified protein. Type of data set: biochemical, Thermus thermophilus. As to conditions: pH 10.0, 75 °C, 50 mM Tris-HCl, 10 μM MnCl2, 0.005–1 mM agmatine.

The Km is the concentration of substrate that gives half-maximal velocity.

B1: TtSpeB (aminopropylagmatine ureohydrolase) (Thermus thermophilus HB8) (protein)
chain: MRLVFGEKDTPYEEARVVVLPVPYDLSLSFLPGARRGPEAILLASRELEPFLLELGAAPEEVGIHAAEPVPWVAGMAEESHRLIREEALRHLRAGKWVVALGGDHSVTHPLVQAHREALGDFSLLHVDAHADLYPEWQGSVYSHASPFYRLLTEGFPLVQVGIRAMDRDSLRLARKKGVALFPAHRIHREGLPLDEILRALGKRVYISLDFDALDPSLMPSVGTPLPGGLSYRQVVDLLEAVFREKEVVGMDFVELSPNGQFHAEMTAAQLVYHAIGLKGLQAGWLSREVDHI
notes: gene amplified from HB8 genomic DNA, pET21b (pET21speBHis, NdeI/HindIII), His-tagged, tag not reported cut, E. coli BL21(DE3), heat step 70 °C, Ni-NTA
With B1, the Km came to 171 µM.
